Experimental data reported in paper PMC9797058.

What was measured:
[1] = target: N-terminally His-tagged Pasteurella multocida toxin (PMT) (Pasteurella multocida) (UniProt P17452); assay: ELISA; solid-phase binding assay; His-PMT coated at 10 ug/mL (500 ng/well) on 96-well Maxisorb plates at 4 C overnight; LRP1 cluster 2, 3 or 4 at 0.02-500 nM, RT, 2 h; TBS with 2 mM CaCl2; bound ligand detected with goat anti-human IgG-HRP
[2] = target: LRP1 (Homo sapiens) (UniProt Q07954); conditions: cited from earlier work

UniProt P17452, sequence (P17452 whole entry): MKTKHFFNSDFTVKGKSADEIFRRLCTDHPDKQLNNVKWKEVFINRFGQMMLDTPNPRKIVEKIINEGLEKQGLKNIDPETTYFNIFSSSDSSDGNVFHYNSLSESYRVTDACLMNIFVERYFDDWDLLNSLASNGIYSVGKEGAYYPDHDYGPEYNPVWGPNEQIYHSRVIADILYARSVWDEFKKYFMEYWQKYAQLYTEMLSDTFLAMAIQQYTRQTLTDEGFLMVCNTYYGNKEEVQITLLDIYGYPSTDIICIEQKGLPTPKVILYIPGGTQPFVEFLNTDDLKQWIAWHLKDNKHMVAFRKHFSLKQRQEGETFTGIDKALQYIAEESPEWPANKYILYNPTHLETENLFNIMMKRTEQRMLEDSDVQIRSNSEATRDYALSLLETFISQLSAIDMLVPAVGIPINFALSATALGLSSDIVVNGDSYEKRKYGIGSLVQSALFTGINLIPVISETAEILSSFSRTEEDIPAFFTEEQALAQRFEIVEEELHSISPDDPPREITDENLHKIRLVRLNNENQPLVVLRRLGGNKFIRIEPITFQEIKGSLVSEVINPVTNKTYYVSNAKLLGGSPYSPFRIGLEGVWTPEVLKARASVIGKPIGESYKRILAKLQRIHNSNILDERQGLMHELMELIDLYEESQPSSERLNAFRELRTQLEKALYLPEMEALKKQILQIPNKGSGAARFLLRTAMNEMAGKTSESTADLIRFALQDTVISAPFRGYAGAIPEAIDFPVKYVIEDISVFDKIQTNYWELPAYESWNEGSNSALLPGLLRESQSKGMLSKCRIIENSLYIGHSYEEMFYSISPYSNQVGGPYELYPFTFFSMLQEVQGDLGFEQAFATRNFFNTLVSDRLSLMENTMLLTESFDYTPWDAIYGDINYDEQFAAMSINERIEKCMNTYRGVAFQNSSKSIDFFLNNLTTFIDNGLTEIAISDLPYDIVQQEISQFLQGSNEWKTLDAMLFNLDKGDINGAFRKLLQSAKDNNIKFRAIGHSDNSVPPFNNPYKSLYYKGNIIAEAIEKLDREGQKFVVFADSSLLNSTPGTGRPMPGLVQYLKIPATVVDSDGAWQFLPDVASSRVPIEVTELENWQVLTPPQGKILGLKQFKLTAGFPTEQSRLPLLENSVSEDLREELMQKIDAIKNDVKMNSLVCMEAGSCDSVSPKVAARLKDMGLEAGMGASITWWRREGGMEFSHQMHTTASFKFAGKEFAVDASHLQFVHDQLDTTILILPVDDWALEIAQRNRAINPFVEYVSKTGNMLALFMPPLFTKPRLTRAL

Row | Substance | Kd [1] | Kd [2]
1 | LRP1 cluster 2 (commercially available extracellular domain) (from UniProt Q07954 20-4544) (domain or fragment) | 41.6 nM | 
2 | LRP1 cluster 4 (commercially available extracellular domain) (from UniProt Q07954 20-4544) (domain or fragment) | 2.28 nM | 
3 | Pseudomonas exotoxin A (from UniProt P11439) |  | 5.2 nM
